Assay results from IntAct's records for PubMed 18676636.

B1: Forkhead box protein C1 (Homo sapiens), Q12948 (parent)
chain: MQARYSVSSPNSLGVVPYLGGEQSYYRAAAAAAGGGYTAMPAPMSVYSHPAHAEQYPGGMARAYGPYTPQPQPKDMVKPPYSYIALITMAIQNAPDKKITLNGIYQFIMDRFPFYRDNKQGWQNSIRHNLSLNECFVKVPRDDKKPGKGSYWTLDPDSYNMFENGSFLRRRRRFKKKDAVKDKEEKDRLHLKEPPPPGRQPPPAPPEQADGNAPGPQPPPVRIQDIKTENGTCPSPPQPLSPAAALGSGSAAAVPKIESPDSSSSSLSSGSSPPGSLPSARPLSLDGADSAPPPPAPSAPPPHHSQGFSVDNIMTSLRGSPQSAAAELSSGLLASAAASSRAGIAPPLALGAYSPGQSSLYSSPCSQTSSAGSSGGGGGGAGAAGGAGGAGTYHCNLQAMSLYAAGERGGHLQGAPGGAGGSAVDDPLPDYSLPPVTSSSSSSLSHGGGGGGGGGGQEAGHHPAAHQGRLTSWYLNQAGGDLGHLASAAAAAAAAGYPGQQQNFHSVREMFESQRIGLNNSPVNGNSSCQMAFPSSQSLYRTSGAFVYDCSKF

Variants of: B1
Settings: with C1QBP

Variant | effect of a mutation on the interaction
MQARYSVSSPNSLGVVPYLGGEQSYYRAAAAAAGGGYTAMPAPMSVYSHPAHAEQYPGGMARAYGPYTPQPQPKDMVKPPYSYIALITMAIQNAPDKKITLNGIYQFIMDRSPFYRDNKQGWQNSIRHNLSLNECFVKVPRDDKKPGKGSYWTLDPDSYNMFENGSFLRRRRRFKKKDAVKDKEEKDRLHLKEPPPPGRQPPPAPPEQADGNAPGPQPPPVRIQDIKTENGTCPSPPQPLSPAAALGSGSAAAVPKIESPDSSSSSLSSGSSPPGSLPSARPLSLDGADSAPPPPAPSAPPPHHSQGFSVDNIMTSLRGSPQSAAAELSSGLLASAAASSRAGIAPPLALGAYSPGQSSLYSSPCSQTSSAGSSGGGGGGAGAAGGAGGAGTYHCNLQAMSLYAAGERGGHLQGAPGGAGGSAVDDPLPDYSLPPVTSSSSSSLSHGGGGGGGGGGQEAGHHPAAHQGRLTSWYLNQAGGDLGHLASAAAAAAAAGYPGQQQNFHSVREMFESQRIGLNNSPVNGNSSCQMAFPSSQSLYRTSGAFVYDCSKF [F112S] | disrupting interaction
